In patent US20210277066A1 (BRIGHAM AND WOMEN S HOSPITAL, published 2021):

T1: mouse LY6A (mouse, UniProt P05533 27-112)
T1 construct: whole, on cells; Over-expressed on HEK293T cells
T1 sequence: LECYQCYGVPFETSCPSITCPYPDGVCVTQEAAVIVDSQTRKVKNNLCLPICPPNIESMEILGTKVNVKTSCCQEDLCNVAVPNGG

B1: AAV.CPP.16 (other)
chain: MAADGYLPDWLEDNLSEGIREWWALKPGAPQPKANQQHQDNARGLVLPGYKYLGPGNGLDKGEPVNAADAAALEHDKAYDQQLKAGDNPYLKYNHADAEFQERLKEDTSFGGNLGRAVFQAKKRLLEPLGLVEEAAKTAPGKKRPVEQSPQEPDSSAGIGKSGAQPAKKRLNFGQTGDTESVPDPQPIGEPPAAPSGVGSLTMASGGGAPVADNNEGADGVGSSSGNWHCDSQWLGDRVITTSTRTWALPTYNNHLYKQISNSTSGGSSNDNAYFGYSTPWGYFDFNRFHCHFSPRDWQRLINNNWGFRPKRLNFKLFNIQVKEVTDNNGVKTIANNLTSTVQVFTDSDYQLPYVLGSAHEGCLPPFPADVFMIPQYGYLTLNDGSQAVGRSSFYCLEYFPSQMLRTGNNFQFSYEFENVPFHSSYAHSQSLDRLMNPLIDQYLYYLSKTINGSGQNQQTLKFSVAGPSNMAVQGRNYIPGPSYRQQRVSTTVTQNNNSEFAWPGASSWALNGRNSLMNPGPAMASHKEGEDRFFPLSGSLIFGKQGTGRDNVDADKVMITNEEEIKTTNPVATESYGQVATNHQSAQTVSALKAQAQTGWVQNQGILPGMVWQDRDVYLQGPIWAKIPHTDGNFHPSPLMGGFGMKHPPPQILIKNTPVPADPPTAFNKDKLNSFITQYSTGQVSVEIEWELQKENSKRWNPEIQYTSNYYKSNNVEFAVNTEGVYSEPRPIGTRYLTRNL
notes: Tested as a whole recombinant AAV particle (rAAV-mCherry); also called Bip2.1 insert TVSALK
B2: AAV.CPP.21 (other)
chain: MAADGYLPDWLEDNLSEGIREWWALKPGAPQPKANQQHQDNARGLVLPGYKYLGPGNGLDKGEPVNAADAAALEHDKAYDQQLKAGDNPYLKYNHADAEFQERLKEDTSFGGNLGRAVFQAKKRLLEPLGLVEEAAKTAPGKKRPVEQSPQEPDSSAGIGKSGAQPAKKRLNFGQTGDTESVPDPQPIGEPPAAPSGVGSLTMASGGGAPVADNNEGADGVGSSSGNWHCDSQWLGDRVITTSTRTWALPTYNNHLYKQISNSTSGGSSNDNAYFGYSTPWGYFDFNRFHCHFSPRDWQRLINNNWGFRPKRLNFKLFNIQVKEVTDNNGVKTIANNLTSTVQVFTDSDYQLPYVLGSAHEGCLPPFPADVFMIPQYGYLTLNDGSQAVGRSSFYCLEYFPSQMLRTGNNFQFSYEFENVPFHSSYAHSQSLDRLMNPLIDQYLYYLSKTINGSGQNQQTLKFSVAGPSNMAVQGRNYIPGPSYRQQRVSTTVTQNNNSEFAWPGASSWALNGRNSLMNPGPAMASHKEGEDRFFPLSGSLIFGKQGTGRDNVDADKVMITNEEEIKTTNPVATESYGQVATNHQSAQTVSALFKAQAQTGWVQNQGILPGMVWQDRDVYLQGPIWAKIPHTDGNFHPSPLMGGFGMKHPPPQILIKNTPVPADPPTAFNKDKLNSFITQYSTGQVSVEIEWELQKENSKRWNPEIQYTSNYYKSNNVEFAVNTEGVYSEPRPIGTRYLTRNL
notes: Tested as a whole recombinant AAV particle (rAAV-mCherry); also called Bip2.6 insert TVSALFK

Target: T1, mouse LY6A
Assay: AAV binding to LY6A-transfected HEK293T cells on ice; bound viral genomes counted by qPCR

Row | Binder | binding result
1 | B1 | no binding (tested: MOI of 10000)
2 | B2 | no binding (tested: MOI of 10000)
